The results in this text go back to patent US20240247058A1 (published 2024).

Positions count from the first letter of the chain named.

The target in assay [1] is T1, human Tumour Necrosis Factor alpha (hTNFα) (human, UniProt P01375 77-233).
T1 construct: Coated on ELISA plates, amine-coupled to the BIAcore chip, or biotinylated on Octet streptavidin sensors; soluble in the L929 assay; also called rhTNFα; hTNF-alpha
The experiment in a line: BLI, Octet RED96, biotinylated hTNF-α on streptavidin sensors (BIAcore cell is n/a). (Biolayer interferometry detects binding as a change in optical thickness at a sensor tip.)

Assay [2] addresses T1, human Tumour Necrosis Factor alpha …. The experiment in a line: cell-based or functional assay.
The target is the same in assay [3]. The experiment in a line: kinetics on hTNFα, Table 1 (instrument for Ka/Kd not stated).
A further assay addresses T2, mouse ICOS ligand (mouse, UniProt Q9JHJ8 47-279, limits assumed).
T2 construct: the construct is not described; also called mICOSL
T2 sequence (looked up): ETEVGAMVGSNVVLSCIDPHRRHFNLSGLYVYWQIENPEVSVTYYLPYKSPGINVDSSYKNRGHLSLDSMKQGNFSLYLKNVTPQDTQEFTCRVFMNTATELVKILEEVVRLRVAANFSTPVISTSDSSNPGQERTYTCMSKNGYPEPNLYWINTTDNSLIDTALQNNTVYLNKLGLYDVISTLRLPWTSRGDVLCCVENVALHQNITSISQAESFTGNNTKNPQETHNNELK
In words: binding ELISA on human and mouse ICOS ligands (FIG. 11).

In assay [4] the target is T1, human Tumour Necrosis Factor alpha …. In words: statement in the legend of the Caco-2 permeability assay (FIG. 8).
The next assay has as its target T3, Mouse TNFα (mouse, UniProt P06804 80-235).
T3 sequence (looked up): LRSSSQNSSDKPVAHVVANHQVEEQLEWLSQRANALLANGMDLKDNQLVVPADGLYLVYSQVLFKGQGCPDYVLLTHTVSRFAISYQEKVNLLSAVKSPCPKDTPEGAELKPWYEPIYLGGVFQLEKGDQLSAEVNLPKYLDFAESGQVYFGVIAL
The experiment in a line: cell-based or functional assay.

In assay [5] the target is T1, human Tumour Necrosis Factor alpha …. The experiment in a line: SPR, BIAcore T200, TNFα amine-coupled to chip, 1:1 Langmuir fit.
Assay [6] shares this target. The experiment in a line: BLI, Octet RED96, biotinylated hTNF-α on streptavidin sensors.
The target of a further assay is T4, human ICOS ligand (human, UniProt O75144 19-258, limits assumed).
T4 construct: also called hICOSL
T4 sequence (looked up): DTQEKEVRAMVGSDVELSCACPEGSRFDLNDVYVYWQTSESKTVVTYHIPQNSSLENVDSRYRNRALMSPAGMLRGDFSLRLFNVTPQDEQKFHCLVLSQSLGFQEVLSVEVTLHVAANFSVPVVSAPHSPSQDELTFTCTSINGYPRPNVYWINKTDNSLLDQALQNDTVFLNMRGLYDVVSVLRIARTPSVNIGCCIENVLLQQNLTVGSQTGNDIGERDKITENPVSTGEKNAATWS
The experiment in a line: binding ELISA on human and mouse ICOS ligands (FIG. 11).

Assay [7] deals with T1, human Tumour Necrosis Factor alpha …. The experiment in a line: binding profile of humanised D1 versions on hTNF-alpha (FIG. 16).

T1 sequence (P01375 77-233 limits assumed): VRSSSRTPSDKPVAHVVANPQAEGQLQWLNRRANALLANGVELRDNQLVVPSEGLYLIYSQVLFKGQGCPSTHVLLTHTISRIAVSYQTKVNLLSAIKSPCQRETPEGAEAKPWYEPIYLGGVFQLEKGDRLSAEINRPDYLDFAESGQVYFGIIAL

B1: TNF VNAR DIMER D1-D1 (VNAR)
chain: ARVDQTPQTITKETGESLTINCVLRDSHCATSSTYWYRKKSGSTNEESISKGGRYVETVNSGSKSFSLRINDLTVEDSGTYRCASECQYGLAEYDVYGGGTVVTVNGGGGSGGGGGSGAHSARVDQTPQTITKETGESLTINCVLRDSHCATSSTYWYRKKSGSTNEESISKGGRYVETVNSGSKSFSLRINDLTVEDSGTYRCASECQYGLAEYDVYGGGTVVTVNAAAHHHHHHGAAESKLISEEDL
Take B1: the equilibrium dissociation constant (Kd) (usually a measure of binding affinity in units of concentration) in [1] is 0.6 nM. For the same molecule, in [2], the “ND50 (nM), neutralisation of hTNF-alpha cytotoxicity in L929 cells” value (“ND50 (nM), neutralisation” for short) was 7 nM. Moreover, in [3], the koff (in general, a measure of how fast the partners let go of each other) was 0.000316 s⁻¹ and the kon – broadly, the second-order rate constant of association – worked out at 500000 M⁻¹ s⁻¹.

B2: ICOS VNAR CC3-Fc-CC3 (Fc fusion)
chain: TRVDQTPRTATKETGESLTINCVLTDTEYGLFSTSWFRKNPGTTDWERMSIGGRYVESVNKGAKSFSLRIKDLTVADSATYYCKALGWWPPAFPHWYDGAGTVLTVNGGGGSGGGGRTEPKSSDKTHTCPPCPAPEAAGAPSVFLFPPKPKDTLMISRTPEVTCVVVDVSHEDPEVKFNWYVDGVEVHNAKTKPREEQYNSTYRVVSVLTVLHQDWLNGKEYKCKVSNKALPAPIEKTISKAKGQPREPQVYTLPPSREEMTKNQVSLTCLVKGFYPSDIAVEWESNGQPENNYKTTPPVLDSDGSFFLYSKLTVDKSRWQQGNVFSCSVMHEALHNHYTQKSLSLSPGKTAAAATAAAATAAAATAAAATRVDQTPRTATKETGESLTINCVLTDTEYGLFSTSWFRKNPGTTDWERMSIGGRYVESVNKGAKSFSLRIKDLTVADSATYYCKALGWWPPAFPHWYDGAGTVLTVN
notes: Human IgG1 Fc; also called anti-ICOSL Quad-X™ construct
B2: the binding result with mouse ICOS ligand is “binds”.

B3: TNF VNAR B4 (VNAR)
VNAR: ARVDQTPQTITKETGESLTINCVLRDSNCALSSMYWYRKKSGSTNEESISKGGRYVETVNSGSKSFSLRINDLTVEDSGTYRCKVYIPCIDELVYMISGGTSGPIHDVYGGGTVVTVNA
notes: Nurse shark VNAR single domain, expressed with His and myc tags
On to B3, for which the binding result in [4] is recorded as “binds”.

B4: TNF S17-Quad-X™ with (Gly4Ser)5 (Fc fusion)
chain: ASVNQTPRTATKETGESLTINCVLTDTHAKVFTTSWFRKNPGTTDWERMSIGGRYVESVNKGAKSFSLRIKDLTVADSATYICRAGGYLSQPRVYWDVYGAGTVLTVNGGGGSGGGGRTEPRGPTIKPCPPCKCPAPNLLGGPSVFIFPPKIKDVLMISLSPIVTCVVVDVSEDDPDVQISWFVNNVEVHTAQTQTHREDYNSTLRVVSALPIQHQDWMSGKEFKCKVNNKDLPAPIERTISKPKGSVRAPQVYVLPPPEEEMTKKQVTLTCMVTDFMPEDIYVEWTNNGKTELNYKNTEPVLDSDGSYFMYSKLRVEKKNWVERNSYSCSVVHEGLHNHHTTKSFSRTPGKGGGGSGGGGSGGGGSGGGGSGAHSASVNQTPRTATKETGESLTINCVLTDTHAKVFTTSWFRKNPGTTDWERMSIGGRYVESVNKGAKSFSLRIKDLTVADSATYICRAGGYLSQPRVYWDVYGAGTVLTVN
With B4, the “fold improvement of in vitro neutralizing potency over S17-Fc” value with Mouse TNFα is around 40 fold.

B5: TNF VNAR DIMER D1-B4 (VNAR)
chain: ARVDQTPQTITKETGESLPINCVLRDSHCATSSTYWYRKKSGSTNEESISKGGRYVETVNSGSKSFSLRINDLTVEDSGTYRCASECQYGLAEYDVYGGGTVVTVNGGGGSGGGGGSGAHSARVDQTPQTITKETGESLTINCVLRDSNCALSSMYWYRKKSGSTNEESISKGGRYVETVNSGSKSFSLRINDLTVEDSGTYRCKVYIPCIDELVYMISGGTSGPIHDVYGGGTVVTVNAAAHHHHHHGAAEQKLISEEDL
Regarding B5, the Kd in assay [1] came out at 15.9 nM. Besides, in assay [2], the “ND50 (nM), neutralisation” value was found to be 8 nM. In assay [3], this molecule gave an off-rate (koff) of 0.0005 s⁻¹ and a kon of 270000 M⁻¹ s⁻¹.

B6: TNF VNAR D1-BA11-D1 (VNAR)
chain: ARVDQTPQTITKETGESLTINCVLRDSHCATSSTYWYRKKSGSTNEESISKGGRYVETVNSGSKSFSLRINDLTVEDSGTYRCASECQYGLAEYDVYGGGTVVTVNGGGGSGGGGSGGGGSGGGGSGAHSTRVDQSPSSLSASVGDRVTITCVLTDTSYPLYSTYWYRKNPGSSNKEQISISGRYSESVNKGTKSFTLTISSLQPEDSATYYCRAMSTNIWTGDGAGTKVEIKGGGGSGGGGSGGGGSGGGGSGAHSARVDQTPQTITKETGESLTINCVLRDSHCATSSTYWYRKKSGSTNEESISKGGRYVETVNSGSKSFSLRINDLTVEDSGTYRCASECQYGLAEYDVYGGGTVVTVNHHHHHHHEQKLISEEDL
notes: Tandem VNAR trimer with His and myc tags
Turning to B6, the “ND50 (nM), neutralisation” value in [2] was 0.38 nM. Besides, the dissociation constant Kd in [5] came out at 4 nM; in assay [6] it was 0.1 nM. The molecule further returned an off-rate (koff) in assay [3] of 0.0002 s⁻¹. The kon in assay [3] was 1.9e+06 M⁻¹ s⁻¹.

B7: TNF VNAR D1-BA11-B4 (VNAR)
chain: ARVDQTPQTITKETGESLTINCVLRDSHCATSSTYWYRKKSGSTNEESISKGGRYVETVNSGSKSFSLRINDLTVEDSGTYRCASECQYGLAEYDVYGGGTVVTVNGGGGSGGGGSGGGGSGGGGSGAHSTRVDQSPSSLSASVGDRVTITCVLTDTSYPLYSTYWYRKNPGSSNKEQISISGRYSESVNKGTKSFTLTISSLQPEDSATYYCRAMSTNIWTGDGAGTKVEIKGGGGSGGGGSGGGGSGGGGSGAHSARVDQTPQTITKETGESLTINCVLRDSNCALSSMYWYRKKSGSTNEESISKGGRYVETVNSGSKSFSLRINDLTVEDSGTYRCKVYIPCIDELVYMISGGTSGPIHDVYGGGTVVTVNHHHHHHHEQKLISEEDL
notes: as for B6
As for B7, the Kd in assay [1] turned out to be 0.33 nM. Besides, in assay [3], the dissociation rate constant (koff) was determined as 0.006 s⁻¹ and the on-rate constant (kon) was determined as 1.7e+06 M⁻¹ s⁻¹.

B8: ICOS VNAR CC3-Fc-2D4 (Fc fusion)
chain: TRVDQTPRTATKETGESLTINCVLTDTEYGLFSTSWFRKNPGTTDWERMSIGGRYVESVNKGAKSFSLRIKDLTVADSATYYCKALGWWPPAFPHWYDGAGTVLTVNGGGGSGGGGRTEPKSSDKTHTCPPCPAPEAAGAPSVFLFPPKPKDTLMISRTPEVTCVVVDVSHEDPEVKFNWYVDGVEVHNAKTKPREEQYNSTYRVVSVLTVLHQDWLNGKEYKCKVSNKALPAPIEKTISKAKGQPREPQVYTLPPSREEMTKNQVSLTCLVKGFYPSDIAVEWESNGQPENNYKTTPPVLDSDGSFFLYSKLTVDKSRWQQGNVFSCSVMHEALHNHYTQKSLSLSPGKTAAAATAAAATAAAATAAAATRVDQTPRTATKETGESLTINCVLTDTDYGLFSTSWFRKNPGTTDWERMSIGGRYVESVNKGAKSFSLRIKDLTVADSATYYCKAFTWPWEWPDRWFRPWYDGAGTVLTVN
notes: as for B2
Take B8: the binding result with human ICOS ligand and with mouse ICOS ligand was “binds” each time.

B9: SoloMER™ VNAR D1-v2 (VNAR)
VNAR: ARVDQSPSSLSASVGDRVTITCVLRDSHCATSSTYWYRKKSGSTNEESISKGGRYVETVNSGSKSFTLTISSLQPEDFATYYCASECQYGLAEYDVYGGGTKVEIKH
notes: Humanised D1 VNAR with His tag; also called soloMER D1-v2
Take B9: the binding result in assay [7] is “binds”.

B10: SoloMER™ VNAR D1-v3 (VNAR)
VNAR: B9 VNAR with R38Q, K39Q, S41P, S43K
notes: Humanised D1 VNAR with His tag
With B10, in [7], the binding result is reported as “binds”.

B11: SoloMER™ VNAR D1-v4 (VNAR)
VNAR: B9 VNAR with S41P, Y55F, V56S, E57G, T58S, V59G, N60S, Y97F, G99Q
notes: as for B10
In the case of B11, the binding result in assay [7] is “binds”.
